Source: article PMC10018343 (Nucleic Acids Research, 2023)

T1: biotinylated Bre1^R6BR (Bre1 amino acids 1-212 with AviTag) (S. cerevisiae, UniProt Q07457 1-212, biotin on the AviTag)
T1 sequence (looked up): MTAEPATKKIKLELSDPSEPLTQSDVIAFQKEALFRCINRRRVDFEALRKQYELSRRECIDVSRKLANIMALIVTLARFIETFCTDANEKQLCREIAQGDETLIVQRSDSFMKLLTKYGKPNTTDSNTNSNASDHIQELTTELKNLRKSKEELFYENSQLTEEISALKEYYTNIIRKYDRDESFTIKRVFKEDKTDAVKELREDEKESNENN

B1: His6Rad6 (wild type), purified alone as BLI analyte (enzyme, S. cerevisiae, UniProt P06104 1-172, looked up)
chain: MSTPARRRLMRDFKRMKEDAPPGVSASPLPDNVMVWNAMIIGPADTPYEDGTFRLLLEFDEEYPNKPPHVKFLSEMFHPNVYANGEICLDILQNRWTPTYDVASILTSIQSLFNDPNPASPANVEAATLFKDHKSQYVKRVKETVEKSWEDDMDDMDDDDDDDDDDDDDEAD
B2: His6Rad6 (amino acids 1-150), co-expressed with Bre1^R6BR (enzyme, S. cerevisiae, UniProt P06104 1-150, looked up)
chain: MSTPARRRLMRDFKRMKEDAPPGVSASPLPDNVMVWNAMIIGPADTPYEDGTFRLLLEFDEEYPNKPPHVKFLSEMFHPNVYANGEICLDILQNRWTPTYDVASILTSIQSLFNDPNPASPANVEAATLFKDHKSQYVKRVKETVEKSWE
B3: Bre1^R6BR (Bre1 amino acids 1-212, Rad6-binding region) (domain or fragment, S. cerevisiae, UniProt Q07457 1-212, looked up)
chain: T1 sequence (looked up)

Legend:
[1] = target: T1, biotinylated Bre1^R6BR (Bre1 amino …); test: BLI
[2] = target: B3; test: SEC-MALS
[3] = target: the molecule itself; test: SEC-MALS

For B1, the Kd [1] was 112 nM.

For B2, the “stoichiometry N” value [2] was 0.5 Rad6 per Bre1^R6BR subunit.

With B3 the “stoichiometry N” value [3] was 2.
